Common to all, as to assay: holdup assay
Common to all, as to parameters: key: below the threshold = too weak to quantify, mostly under pKd 3.1 to 4

For one assay, the target named is T1, CNKSR1, Q969H4.
T1 sequence (Q969H4 191-295, limits assumed, looked up): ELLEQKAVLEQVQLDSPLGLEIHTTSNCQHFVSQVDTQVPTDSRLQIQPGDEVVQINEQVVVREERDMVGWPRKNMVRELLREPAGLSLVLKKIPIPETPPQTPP

For a further assay, the target named is GIPC3, Q8TF64.
In another assay the target is O00233. As to conditions: plain residues with an end cap or a label only (N-terminal biotin on a linker: ttds).
The next assay addresses O00560. The conditions noted are these: plain residues with an end cap or a label only (N-terminal biotin on a linker: ttds).
The target in the next assay is O60759. As to conditions: plain residues with an end cap or a label only (N-terminal biotin on a linker: ttds).
The target in another assay is O75970. As to conditions: plain residues with an end cap or a label only (N-terminal biotin on a linker: ttds).
A further assay addresses Q12923. The conditions noted are these: plain residues with an end cap or a label only (N-terminal biotin on a linker: ttds).
For a further assay, the target named is Q13368. As to conditions: plain residues with an end cap or a label only (N-terminal biotin on a linker: ttds).
The next assay addresses Q6ZWJ1. As to conditions: plain residues with an end cap or a label only (N-terminal biotin on a linker: ttds).
The next assay deals with Q70Z35. The conditions noted are these: plain residues with an end cap or a label only (N-terminal biotin on a linker: ttds).
The target of another assay is Q8TEW0. The conditions noted are these: plain residues with an end cap or a label only (N-terminal biotin on a linker: ttds).
The target in a further assay is Q92614. As to conditions: plain residues with an end cap or a label only (N-terminal biotin on a linker: ttds).
For the next assay, the target named is Q96FS4. As to conditions: plain residues with an end cap or a label only (N-terminal biotin on a linker: ttds).
The next assay has as its target Q96JB8. The conditions noted are these: plain residues with an end cap or a label only (N-terminal biotin on a linker: ttds).
Another assay has as its target Q96JY6. As to conditions: plain residues with an end cap or a label only (N-terminal biotin on a linker: ttds).
Another assay deals with Q96SB3. As to conditions: plain residues with an end cap or a label only (N-terminal biotin on a linker: ttds).
In a further assay the target is Q9C0E4. The conditions noted are these: plain residues with an end cap or a label only (N-terminal biotin on a linker: ttds).
The target of another assay is Q9H190. As to conditions: plain residues with an end cap or a label only (N-terminal biotin on a linker: ttds).
For another assay, the target named is Q9NPB6. As to conditions: plain residues with an end cap or a label only (N-terminal biotin on a linker: ttds).
Another assay has as its target Q9NR12. As to conditions: plain residues with an end cap or a label only (N-terminal biotin on a linker: ttds).
A further assay concerns the target Q9P227. As to conditions: plain residues with an end cap or a label only (N-terminal biotin on a linker: ttds).
A further assay concerns the target Q9UDY2. As to conditions: plain residues with an end cap or a label only (N-terminal biotin on a linker: ttds).
Another assay addresses Q9ULJ8. The conditions noted are these: plain residues with an end cap or a label only (N-terminal biotin on a linker: ttds).
Another assay concerns the target Q9Y3R0. As to conditions: plain residues with an end cap or a label only (N-terminal biotin on a linker: ttds).
For a further assay, the target named is T2, RGS12, O14924.
T2 sequence (O14924 17-108, limits assumed, looked up): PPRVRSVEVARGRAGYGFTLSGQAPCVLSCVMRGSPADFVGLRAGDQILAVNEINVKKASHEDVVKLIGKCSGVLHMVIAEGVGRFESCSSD

Another assay deals with T3, INTU, Q9ULD6.
T3 sequence (Q9ULD6 180-273, limits assumed, looked up): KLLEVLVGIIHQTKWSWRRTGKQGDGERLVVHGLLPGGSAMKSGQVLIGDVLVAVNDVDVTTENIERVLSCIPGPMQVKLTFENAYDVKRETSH

The target in another assay is LNX1_4, Q8TBB1.
Sequence of LNX1_4, Q8TBB1 (Q8TBB1 631-726): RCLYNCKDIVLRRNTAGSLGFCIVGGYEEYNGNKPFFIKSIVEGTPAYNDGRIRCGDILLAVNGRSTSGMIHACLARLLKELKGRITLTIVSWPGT
The target of the next assay is T4, LNX2_1, Q8N448.
T4 sequence (Q8N448 228-328, limits assumed, looked up): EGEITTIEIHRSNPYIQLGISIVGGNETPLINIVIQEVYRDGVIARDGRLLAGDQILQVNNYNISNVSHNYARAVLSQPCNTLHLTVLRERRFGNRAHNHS

Setting [1] is: plain residues with an end cap or a label only (N-terminal biotin on a linker: ttds).
Setting [2] is: plain residues with an end cap or a label only (N-terminal biotin on a linker: none).

Sequence of GIPC3, Q8TF64 (Q8TF64 107-202): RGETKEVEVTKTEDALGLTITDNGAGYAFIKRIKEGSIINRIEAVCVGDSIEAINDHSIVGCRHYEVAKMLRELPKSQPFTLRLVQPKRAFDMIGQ

Broadly, the pKd is the negative decadic logarithm of the Kd, by convention in mol/L. As for HRTCYLVTQL [ASIC3, Q9UHC3], the negative-log Kd (pKd) entry is reported as “below the threshold” with CNKSR1, Q969H4 (setting [1]); “below the threshold” with GIPC3, Q8TF64 (setting [1]); “below the threshold” with O00233; “below the threshold” in the assay with O00560; “below the threshold” with O60759; “below the threshold” with O75970. Besides, the pKd result with Q12923, with Q13368, in the assay with Q6ZWJ1, in the assay with Q70Z35, with Q8TEW0 and with Q92614 was “below the threshold” in each case. The pKd result with Q96FS4, with Q96JB8, with Q96JY6, in the assay with Q96SB3, with Q9C0E4 and with Q9H190 was “below the threshold” in each case. Also, the pKd result in the assay with Q9NPB6, with Q9NR12, with Q9P227, in the assay with Q9UDY2, in the assay with Q9ULJ8 and with Q9Y3R0 was “below the threshold” throughout. Further, the pKd with RGS12, O14924 (setting [1]) came to 4.28.

As to RRVRKLPSTTL [RPS6KA1, Q15418], the pKd result with CNKSR1, Q969H4 (setting [1]) is “below the threshold”; in the assay with GIPC3, Q8TF64 (setting [1]), “below the threshold”; in the assay with INTU, Q9ULD6 (setting [1]), “below the threshold”; in the assay with LNX1_4, Q8TBB1 (setting [1]), “below the threshold”; in the assay with LNX2_1, Q8N448 (setting [1]), “below the threshold”; with RGS12, O14924 (setting [1]), 3.56.

QPGTPTRTAV [MAP2K2, P36507]: the pKd with CNKSR1, Q969H4 (setting [1]) is 4.07; with GIPC3, Q8TF64 (setting [1]) it was “below the threshold”; with INTU, Q9ULD6 (setting [1]), “below the threshold”; in the assay with O00233 it was “below the threshold”; with O00560, “below the threshold”; in the assay with O60759 it was “below the threshold”. The pKd entry in the assay with O75970, with Q12923, with Q13368, in the assay with Q6ZWJ1, with Q70Z35 and with Q8TEW0 was “below the threshold” each time. Besides, the pKd result with Q92614, in the assay with Q96FS4, with Q96JB8, in the assay with Q96JY6, in the assay with Q96SB3 and with Q9C0E4 was “below the threshold” throughout. Moreover, the pKd result with Q9H190, with Q9NPB6, with Q9NR12, with Q9P227, in the assay with Q9UDY2 and in the assay with Q9ULJ8 was “below the threshold” in each case. For the same molecule, the pKd entry with Q9Y3R0 is listed as “below the threshold”; with RGS12, O14924 (setting [1]), “below the threshold”.

Consider TGDTLEKFVEGL [CBP, Q92793], for which the pKd entry is “below the threshold” in the assay with INTU, Q9ULD6 (setting [1]); 4.65 with LNX1_4, Q8TBB1 (setting [1]); “below the threshold” with LNX2_1, Q8N448 (setting [1]); “below the threshold” in the assay with Q92614; “below the threshold” with Q96JB8.

Regarding SEKHFRETEV [HTLV1-TAX1, P03409], the pKd was 3.8 with INTU, Q9ULD6 (setting [1]); “below the threshold” in the assay with LNX1_4, Q8TBB1 (setting [1]); “below the threshold” with LNX2_1, Q8N448 (setting [1]).

In the case of MERLRVETDV [ARHGEF16, Q5VV41], the pKd with CNKSR1, Q969H4 (setting [1]) was 4.16; in the assay with GIPC3, Q8TF64 (setting [1]), “below the threshold”; with INTU, Q9ULD6 (setting [1]) it was 4.32; in the assay with O00233 it was “below the threshold”; in the assay with O00560, “below the threshold”; in the assay with O60759, “below the threshold”. In addition, the pKd entry with O75970, with Q12923, with Q13368, with Q6ZWJ1, with Q70Z35 and with Q8TEW0 was “below the threshold” throughout. The pKd entry in the assay with Q92614, with Q96FS4, with Q96JB8, with Q96JY6, in the assay with Q96SB3 and in the assay with Q9C0E4 was “below the threshold” in each case. Also, the pKd entry with Q9H190, with Q9NPB6, with Q9NR12, with Q9P227, in the assay with Q9UDY2 and in the assay with Q9ULJ8 was “below the threshold” each time. For the same molecule, the pKd result was “below the threshold” with Q9Y3R0 and “below the threshold” with RGS12, O14924 (setting [1]).

For the molecule DSKPPLPPDEWV [MERS-E, K9N5R3], the pKd entry is “below the threshold” with CNKSR1, Q969H4 (setting [2]); “below the threshold” in the assay with GIPC3, Q8TF64 (setting [2]); “below the threshold” with INTU, Q9ULD6 (setting [2]); “below the threshold” with LNX1_4, Q8TBB1 (setting [2]); 4.21 with LNX2_1, Q8N448 (setting [2]); “below the threshold” in the assay with RGS12, O14924 (setting [2]).

For the origin of these results see article PMC9482650, “Quantitative fragmentomics allow affinity mapping of interactomes” (Nature Communications, 2022).
